Assay results published in publication PMC10027511, “Disordered proteins mitigate the temperature dependence of site-specific binding free energies” (The Journal of Biological Chemistry, 2023).
Like-named read-outs stand apart in the source and are kept apart here.

Columns and labels:
[1] = target: T1, N-terminal SH3 domain of Drk (T22G, 19F-W36) (Drosophila melanogaster, UniProt Q08012, T22G); experiment: 19F NMR titration of SH3 with Sos site 4 (two-state and bidentate fits); format: binding
T1 construct: the N-terminal SH3 domain of Drk (UniProt ID: Q08012); 19F label: 5-fluorotryptophan at W36 (chemical label on the side chain); made in house
Experimental: Data were acquired using Bruker Avance III HD spectrometers equipped with a QCI cryoprobe (1H Larmor frequencies of 500, and 470 MHz for 19F). Data was processed using NMRpipe (2020.171.18.39) and referenced to trimethylsilylpropanesulfonate to account the temperature dependence of chemical shift. […]
site 4 (non-MBD tagged construct) was exchanged into of 50 mM HEPES, 50 mM bis-tris propane, 50 mM sodium acetate pH 7.5 plus 5% (v/v) D2O using a PD-10 Midi column (Cytiva) selecting the fractions with the highest concentration for the titration. The Sos solution was used to dissolved one aliquot of SH3, and a second, larger […]
volume solution of SH3 was prepared in the same buffer, at an identical concentration of SH3. Measurements were made at 4.2, 15, 25, 35 and 45 °C. The sample was then removed, diluted using the larger SH3 solution and returned […]
(§1) µM, with SH3 at 270 µM (Figure S3, Table S2).

[2] = target: N-terminal SH3 domain of Drk (T22G); experiment: 1H-13C HMQC titration of SH3 into 13C-Ile Sos site 4 (NMR TITAN); format: binding, Drosophila melanogaster; details: for Kd: 51.5 μM Sos site 4, 20 mM sodium phosphate pH 7.5, 5% D2O; for Kd / koff / kon / ΔGA°′‡ (activation free energy of association) / ΔGD°′ (dissociation free energy) / ΔGD°′‡ (activation free energy of dissociation): single measurement, bootstrap; for koff / kon / ΔGA°′‡ (activation free energy of association) / ΔGD°′ (dissociation free energy) / ΔGD°′‡ (activation free energy of dissociation): pH 7.5
Excerpt: As an alternative, we measured binding of Sos and SH3 from the opposite perspective, that is, by monitoring the interaction via Sos by moving the NMR-active nuclei from SH3 to Sos. Specifically, we isotopically enriched (^13C-δ1 methyl) isoleucines in the site 4 protein construct. This construct has three isoleucines: I1384 is in site 4; I1394 is adjacent to site 4; and I1325 is likely distant from site 4. Assignments were made via mutagenesis (Supplemental Material, Fig. S5). […] High-quality fits were obtained using two-dimensional lineshape analysis (Figs. S6–S10), yielding affinities (Table 1) similar to those from ITC (Table 2), and site 4 peptide, but only at low temperatures (Table 1) ([34]).
Figure 3 ^1H–^13C HMQC titration of Sos site 4 at 35 °C.A, spectra. B, simulated spectra from TITAN fits. C, van’t Hoff and Eyring analyses of ^1H–^13C HMQC titrations. Measurements were made with a constant concentration of 51.5 μM Sos site 4, with titration points signified by crosspeaks of different colors. SH3 concentrations are 270, 122, 100, 75.0, 50.0, 37.5, 25.0, 12.5, 6.25, 3.13, […], 0.781, 0.391, and 0 μM. HMQC, heteronuclear multiple quantum correlation; Sos, Son of sevenless.
NMR data were acquired using Bruker Avance III HD spectrometers equipped with QCI cryoprobes (^1H Larmor frequencies of 500, 470 MHz for ^19F), or TCI cryoprobes (^1H Larmor frequencies of 850 MHz, 213 MHz for ^13C). Data were processed using NMRpipe (2020.171.18.39). Spectra across different temperatures are referenced to trimethylsilylpropanesulfonate.
^1H–^13C correlation spectra were acquired using a heteronuclear multiple quantum correlation experiment (optimized for the methyl transverse relaxation optimized spectroscopy effect) ([66]) with between 8 and 40 scans, depending on the signal/noise of the Ile1384 peak. The ^1H sweep width was 15 PPM using 5120 complex points and a center frequency at 4.7 PPM. Forty-eight complex points were collected in the indirect dimension, with a sweep width of 5 PPM, and a center frequency of 12.5 PPM. The water signal was suppressed and dephased using a combination of presaturation and selective shaped pulses. Sos site 4 protein was exchanged into 20 mM sodium phosphate, pH 7.5 plus 5% (v/v) D2O using a PD-10 midi desalting column (Cytiva); its concentration was then adjusted to 51.5 μM. Four hundred microliters of Sos site 4 solution were used to dissolve lyophilized SH3 for the initial titration point, and then spectra were acquired at 4.2, 15, 25, 35, and 45 °C. The solution containing only Sos site 4 was used for a series of dilutions to obtain SH3 titration points of 270, 122, 100, 75.0, 50.0, 37.5, 25.0, 12.5, 6.25, 3.13, 1.56, 0.781, 0.391, and 0 μM.
^1H–^13C heteronuclear multiple quantum correlation titration measurements of SH3 into [^13CH3-Ile]-labeled Sos were analyzed using NMR TITAN, version 1.6 ([34]). Measurements for each temperature were fit to a two-state interaction model, and parameter uncertainties were estimated from 100 bootstrapped replicas ([34], [67]). Ile1384, Ile1394, Ile1325, and one pseudo peak were fit as a single spin group to account for overlapping resonances. Measurements across multiple temperatures were then fitted to the van’t Hoff and Eyring equations to determine Δ HD°′ , TΔ SD,298.15K°′ , Δ HA°′‡ , TΔ SA,298.15K°′‡ , Δ HD°′‡ , and TΔ SD,298.15K°′‡ . Errors generated from TITAN fits were used to perform weighted least squares regressions, and the reported uncertainties are the 95% confidence intervals of fits.

[3] = system: N-terminal SH3 domain of Drk (T22G); experiment: ITC of Sos constructs (cell) with SH3 (syringe); format: binding, Drosophila melanogaster; details: for Kd: single-site model
Experimental: volume solution of SH3 was prepared in the same buffer, at an identical concentration of SH3. Measurements were
made at 4.2, 15, 25, 35 and 45 °C. The sample was then removed, diluted using the larger SH3 solution and returned
as §1

[4] = 4.2 °C, bidentate fit, strong site
[5] = 4.2 °C, bidentate fit, weak/nonspecific site
[6] = 15 °C, bidentate fit, strong site
[7] = 15 °C, bidentate fit, weak/nonspecific site
[8] = 25 °C, bidentate fit, strong site
[9] = 25 °C, bidentate fit, weak/nonspecific site
[10] = 35 °C, bidentate fit, strong site
[11] = 35 °C, bidentate fit, weak/nonspecific site
[12] = 45 °C, bidentate fit, strong site
[13] = 45 °C, bidentate fit, weak/nonspecific site
[14] = 298 K, linear Eyring fit, 95% confidence interval
[15] = linear Eyring fit, 95% confidence interval
[16] = 4.2 °C, SMG construct, 20 mM sodium phosphate pH 7.5, knockout subtracted, three fits

T1 sequence (Q08012 1-58 T22G): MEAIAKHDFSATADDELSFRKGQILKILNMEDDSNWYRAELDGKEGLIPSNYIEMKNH

B1: Site 4: Sos residues 1177 to 1405, L1203A, L1372A, R1375A, C1306S, C1357S, L1346A, R1349A, R1350A (protein, UniProt P26675 1177-1405, looked up, variant L1203A L1372A R1375A C1306S C1357S L1346A R1349A R1350A)
chain: TSSWSGTPQHTRTDQNNGEVSVPAPHAPKKPGAHVWANNNSTLASASAMDVVFSPALPEHLPPQSLPDSNPFASDTEAPPSPLPKLVVSPRHETGNRSPFHGRMQNSPTHSTASTVTLTGMSTSGGEEFSAGGFYFNSAHQGQPGAVPISPHVNVPMATNMEYRAVPPPAPPAAKERTESSADMAQKRQAPDAPTAPPADGELSPPPIPPRLNHSTGISYLRQSHGKSK
[1]; [4]
  Site 1 koff: 0.080 103 s-1
  Site 1 kon: 0.37 108 s-1 M-1
[1]; 4.2 °C, bidentate fit, strong site, 50 mM HEPES, 50 mM bis-tris propane, 50 mM sodium acetate pH 7.5, 5% D2O, MG construct, read-out: Site 1 KD
  Kd: 2.15 µM
[1]; [5]
  Site 2 koff: 11 ± 4 103 s-1
  Site 2 kon: 0.15 108 s-1 M-1
[1]; 4.2 °C, bidentate fit, weak/nonspecific site, read-out: Site 2 KD
  Kd: 800 µM
[1]; 4.2 °C, two-state model (poor fit), read-out: KD
  Kd: 0.3 µM
[1]; [6]
  Site 1 koff: 0.239 103 s-1
  Site 1 kon: 0.49 108 s-1 M-1
[1]; 15 °C, bidentate fit, strong site, pH 7.5, read-out: Site 1 KD
  Kd: 4.9 µM
[1]; [7]
  Site 2 koff: 15 ± 4 103 s-1
  Site 2 kon: 0.10 108 s-1 M-1
[1]; 15 °C, bidentate fit, weak/nonspecific site, read-out: Site 2 KD
  Kd: 1500 µM
[1]; [8]
  Site 1 koff: 0.667 103 s-1
  Site 1 kon: 0.63 108 s-1 M-1
[1]; 25 °C, bidentate fit, strong site, pH 7.5, read-out: Site 1 KD
  Kd: 10.6 µM
[1]; [9]
  Site 2 koff: 19 ± 5 103 s-1
  Site 2 kon: 0.06 108 s-1 M-1
[1]; 25 °C, bidentate fit, weak/nonspecific site, read-out: Site 2 KD
  Kd: 3000 µM
[1]; [10]
  Site 1 koff: 1.74 103 s-1
  Site 1 kon: 0.80 108 s-1 M-1
[1]; 35 °C, bidentate fit, strong site, pH 7.5, read-out: Site 1 KD
  Kd: 21.7 µM
[1]; [11]
  Site 2 koff: 23 ± 7 103 s-1
  Site 2 kon: 0.04 108 s-1 M-1
[1]; 35 °C, bidentate fit, weak/nonspecific site, read-out: Site 2 KD
  Kd: 6000 µM
[1]; [12]
  Site 1 koff: 4.29 103 s-1
  Site 1 kon: 1.01 108 s-1 M-1
[1]; 45 °C, bidentate fit, strong site, pH 7.5, read-out: Site 1 KD
  Kd: 42.6 µM
[1]; [13]
  Site 2 koff: 30 ± 10 103 s-1
  Site 2 kon: 0.03 108 s-1 M-1
[1]; 45 °C, bidentate fit, weak/nonspecific site, read-out: Site 2 KD
  Kd: 10000 µM
[2]; 4.2 °C
  Kd: 3 ± 0.2 µM
  koff: 0.093 ± 0.002 10^3 s^−1
  kon: 0.31 ± 0.02 10^8 M^−1 s^−1
  ΔGA°′‡ (activation free energy of association): 6.69 ± 0.07 kcal/mol
  ΔGD°′ (dissociation free energy): 7.01 ± 0.07 kcal/mol
  ΔGD°′‡ (activation free energy of dissociation): 13.70 ± 0.02 kcal/mol
[2]; 4.2–45 °C
  temperature dependence of ΔGD°′‡ and ΔGA°′‡: do not change with temperature
[2]; 15 °C
  Kd: 4.5 ± 0.2 µM
  koff: 0.25 ± 0.09 10^3 s^−1
  kon: 0.56 ± 0.03 10^8 M^−1 s^−1
  ΔGA°′‡ (activation free energy of association): 6.64 ± 0.06 kcal/mol
  ΔGD°′ (dissociation free energy): 7.05 ± 0.04 kcal/mol
  ΔGD°′‡ (activation free energy of dissociation): 13.69 ± 0.04 kcal/mol
[2]; 25 °C
  Kd: 6.4 ± 0.2 µM
  koff: 0.62 ± 0.03 10^3 s^−1
  kon: 0.97 ± 0.06 10^8 M^−1 s^−1
  ΔGA°′‡ (activation free energy of association): 6.56 ± 0.06 kcal/mol
  ΔGD°′ (dissociation free energy): 7.09 ± 0.03 kcal/mol
  ΔGD°′‡ (activation free energy of dissociation): 13.64 ± 0.05 kcal/mol
[2]; 35 °C
  Kd: 9.7 ± 0.2 µM
  koff: 1.25 ± 0.04 10^3 s^−1
  kon: 1.29 ± 0.05 10^8 M^−1 s^−1
  ΔGA°′‡ (activation free energy of association): 6.62 ± 0.04 kcal/mol
  ΔGD°′ (dissociation free energy): 7.07 ± 0.02 kcal/mol
  ΔGD°′‡ (activation free energy of dissociation): 13.69 ± 0.03 kcal/mol
[2]; 45 °C
  Kd: 17.8 ± 0.5 µM
  koff: 4.4 ± 0.2 10^3 s^−1
  kon: 2.5 ± 0.1 10^8 M^−1 s^−1
  ΔGA°′‡ (activation free energy of association): 6.45 ± 0.05 kcal/mol
  ΔGD°′ (dissociation free energy): 6.91 ± 0.03 kcal/mol
  ΔGD°′‡ (activation free energy of dissociation): 13.36 ± 0.05 kcal/mol
[2]; [14]
  TΔSA°′‡ (activation entropy of association): 1 ± 1
  TΔSD°′‡ (activation entropy of dissociation): 1 ± 2
[2]; 298 K, linear van't Hoff fit, 95% confidence interval
  TΔSD°′ (van't Hoff): 0 ± 2 kcal/mol
[2]; [15]
  ΔHA°′‡ (activation enthalpy of association): 7 ± 1 kcal/mol
  ΔHD°′‡ (activation enthalpy of dissociation): 14 ± 1 kcal/mol
[2]; linear van't Hoff fit of 4.2-45 °C data, 95% confidence interval
  ΔHD°′ (van't Hoff): 7 ± 2 kcal/mol
[3]; [16]
  Kd: 3 ± 1 µM
  ΔHD°′: 2.8 ± 0.1 kcal/mol
[3]; 35 °C (35.1 in Table S1), SMG construct, 20 mM sodium phosphate pH 7.5, knockout subtracted, three fits
  Kd: 14 ± 3 µM
[3]; from ΔHD°′ at 4.2 and 35 °C
  sign of ΔCP,D: positive
[3]; unsaturated after >3 mole equivalents, specific plus nonspecific binding
  stoichiometry before knockout subtraction: > 1
